This is an account of results in the supplement of paper PMC10126150.

For this data set, the system named is ATP. Nature of the data set: switch fluorescence ratio, 500 uM ATP over buffer (Cy3 cluster intensity, sum of 5 cycles each) (fold (ratio)); higher = stronger signal-on switching upon ATP binding; sequences stand for … in TCGTCGGCAGCGTCAGATGTGTATAAGAGACAGTTTTTTTTTTTTTTTTTTTTTTTTT…TC. Conditions: aptamer strand: ATP DNA aptamer (quencher-CACCTGGGGGAGTATTGCGGAGGAAGG + anchor), 100 nM annealed; ATP concentration: 500 uM. A digest of the protocol:
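Cy3-labelled switching-strand clusters on a modified Illumina MiSeq flow-cell were annealed to 100 nM quencher-labelled ATP aptamer, imaged in selection buffer, then imaged after 15 min with 500 uM ATP at 22 °C. Five buffer/ATP cycles ran, with NaOH stripping and re-annealing between them. The fluorescence ratio is summed target-cycle over summed buffer-cycle Cy3 intensity per cluster, averaged per switch-domain sequence. Clusters outside 100-1000 RFU were excluded.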

± gives the standard deviation of the averaged measurements.
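Note: ATP exposure 15 min at 22 °C before imaging.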

TTGTAAGGGT: the switch fluorescence ratio was found to be 0.978 ± 0.017.
For TTGTAATTAC, the switch fluorescence ratio was 1.3 ± 0.44.
For TTGTAATTCG, the switch fluorescence ratio stood at 1.02 ± 0.05.
In the case of TTGTAATTTT, the switch fluorescence ratio is 0.991 ± 0.017.
For TTGTACGGGG, the switch fluorescence ratio was determined as 0.985 ± 0.03.
In the case of TTGTACTATC, the switch fluorescence ratio was 1.01 ± 0.063.
On to TTGTAGCTGT, for which the switch fluorescence ratio is 1.12 ± 0.13.
As to TTGTAGGGAT, the switch fluorescence ratio was determined as 1.43 ± 0.77.
Take TTGTAGGGGG: the switch fluorescence ratio is 1.17 ± 0.4.
The value for TTGTAGTTAT was 1.09 ± 0.16.
With TTGTATATAT, the switch fluorescence ratio was 1.49 ± 0.81.
The value for TTGTATGGGA was 1.001 ± 0.0069; that for TTGTATGTGT was 0.983 ± 0.032; that for TTGTATTGCC was 1.02 ± 0.018.
In the case of TTGTATTTGC, the switch fluorescence ratio came to 0.976 ± 0.031.
Take TTGTCAGAGT: the switch fluorescence ratio turned out to be 1.001 ± 0.0015.
For TTGTCATCTG, the switch fluorescence ratio is 1.01 ± 0.012.
As to TTGTCCCGTG, the switch fluorescence ratio amounted to 1.01 ± 0.026.
On to TTGTCGCTGT, for which the switch fluorescence ratio was found to be 1.14 ± 0.19.
Consider TTGTCGGGTT, for which the switch fluorescence ratio is 1.01 ± 0.018.
Consider TTGTCGTCTC, for which the switch fluorescence ratio amounted to 0.986 ± 0.041.
For TTGTCTGGGC, the switch fluorescence ratio came out at 0.984 ± 0.032.
On to TTGTGAAGCA, for which the switch fluorescence ratio was found to be 1.025 ± 0.0054.
As for TTGTGAAGGT, the switch fluorescence ratio is 1.05 ± 0.044.
With TTGTGAGTGC, the switch fluorescence ratio was found to be 0.91 ± 0.023.
As for TTGTGATAGA, the switch fluorescence ratio worked out at 1.06 ± 0.052.
Turning to TTGTGATCTT, the switch fluorescence ratio is 0.961 ± 0.02.
The value for TTGTGATGGA was 0.9896 ± 0.008; that for TTGTGATTCT was 0.97032 ± 0.00028; that for TTGTGATTGT was 1.01 ± 0.016.
As for TTGTGCAAGT, the switch fluorescence ratio was 1.01 ± 0.013.
As to TTGTGCGACT, the switch fluorescence ratio was determined as 0.98 ± 0.019.
Regarding TTGTGCTATT, the switch fluorescence ratio was 1.26 ± 0.32.
For the sequence TTGTGGAATT, the switch fluorescence ratio stood at 0.966 ± 0.02.
Take TTGTGGATG: the switch fluorescence ratio was 0.962 ± 0.017.
With TTGTGGGG, the switch fluorescence ratio worked out at 0.992 ± 0.021.
As for TTGTGGGGCG, the switch fluorescence ratio amounted to 0.986 ± 0.068.
As to TTGTGGGTCC, the switch fluorescence ratio amounted to 1.013 ± 0.0093.
The value for TTGTGGGTGT was 1.004 ± 0.0082; that for TTGTGGTATT was 0.99 ± 0.0084.
The value for TTGTGGTCGT was 0.9859 ± 0.0074.
On to TTGTGGTGTG, for which the switch fluorescence ratio is 0.984 ± 0.049.
Turning to TTGTGTCAGT, the switch fluorescence ratio was 0.9885 ± 0.0045.
For the sequence TTGTGTGACT, the switch fluorescence ratio worked out at 0.991 ± 0.04.
With TTGTGTGCAG, the switch fluorescence ratio was 0.959 ± 0.053.
With TTGTGTGTGG the figure was 0.976 ± 0.021; with TTGTGTGTGT, 0.993 ± 0.019; with TTGTGTTAGG, 0.994 ± 0.031.
As for TTGTGTTGGC, the switch fluorescence ratio was determined as 1.02 ± 0.038.
With TTGTGTTTCG the figure was 0.967 ± 0.028.
With TTGTGTTTTA the figure was 0.998 ± 0.02; with TTGTTAAATC, 1.02 ± 0.038; with TTGTTAAGAG, 0.986 ± 0.043.
On to TTGTTAAGTG, for which the switch fluorescence ratio turned out to be 1.02 ± 0.1.
With TTGTTACATC, the switch fluorescence ratio turned out to be 0.941 ± 0.016.
TTGTTACATG: the switch fluorescence ratio turned out to be 1.012 ± 0.0051.
For TTGTTACTTT, the switch fluorescence ratio came out at 1 ± 0.017.
As for TTGTTAGAGT, the switch fluorescence ratio amounted to 0.9809 ± 0.0019.
Consider TTGTTAGTTG, for which the switch fluorescence ratio was found to be 1.01 ± 0.045.
As to TTGTTATAGA, the switch fluorescence ratio was found to be 0.998 ± 0.024.
For the sequence TTGTTCCGTT, the switch fluorescence ratio was determined as 0.9874 ± 0.0066.
The value for TTGTTCTGGA was 0.977 ± 0.056.
In the case of TTGTTGAGTC, the switch fluorescence ratio was determined as 1 ± 0.032.
In the case of TTGTTGAGTG, the switch fluorescence ratio stood at 0.968 ± 0.028.
With TTGTTGCGGA, the switch fluorescence ratio was 0.997 ± 0.011.
With TTGTTGCGGC, the switch fluorescence ratio is 1.01 ± 0.042.
For TTGTTGTCTA, the switch fluorescence ratio amounted to 0.995 ± 0.015.
Consider TTGTTGTTGT, for which the switch fluorescence ratio was determined as 0.988 ± 0.021.
For the sequence TTGTTTAGGC, the switch fluorescence ratio was 1.1 ± 0.027.
Regarding TTGTTTGAGG, the switch fluorescence ratio was 0.9815 ± 0.004.
As to TTGTTTGGGA, the switch fluorescence ratio is 1.02 ± 0.034.
TTGTTTGGTA: the switch fluorescence ratio came to 1 ± 0.013.
As for TTGTTTGTAT, the switch fluorescence ratio was found to be 0.9647 ± 0.0073.
For TTGTTTGTT, the switch fluorescence ratio turned out to be 0.994 ± 0.019.
TTGTTTTCAC: the switch fluorescence ratio stood at 1.28 ± 0.4.
With TTGTTTTCGT the figure was 1.01 ± 0.039.
With TTGTTTTGTC the figure was 0.975 ± 0.065.
As to TTGTTTTTCA, the switch fluorescence ratio was determined as 0.999 ± 0.027.
TTTAAAAACC: the switch fluorescence ratio stood at 1.01 ± 0.034.
For the sequence TTTAAAATTG, the switch fluorescence ratio is 0.989 ± 0.042.
Turning to TTTAAACAA, the switch fluorescence ratio came out at 1 ± 0.032.
As to TTTAAACGCT, the switch fluorescence ratio amounted to 0.997 ± 0.036.
The value for TTTAAACGGG was 1 ± 0.011; that for TTTAAAGCTG was 1.06 ± 0.064; that for TTTAAATATT was 1.02 ± 0.031.
Consider TTTAAATGGG, for which the switch fluorescence ratio amounted to 1 ± 0.021.
The value for TTTAACACCA was 1.029 ± 0.0075; that for TTTAACAGGG was 1.03 ± 0.069; that for TTTAACTAGT was 1 ± 0.018.
With TTTAAGACC the figure was 0.979 ± 0.015; with TTTAAGATGG, 1.02 ± 0.02.
In the case of TTTAAGATTA, the switch fluorescence ratio came out at 0.9843 ± 0.0063.
Turning to TTTAAGCATT, the switch fluorescence ratio stood at 1.19 ± 0.066.
With TTTAAGCGCT, the switch fluorescence ratio was 0.979 ± 0.029.
As to TTTAAGCGGT, the switch fluorescence ratio came out at 0.996 ± 0.024.
With TTTAAGGAAC the figure was 1.03 ± 0.026; with TTTAAGGAGA, 0.993 ± 0.037.
On to TTTAAGGCAG, for which the switch fluorescence ratio is 1.005 ± 0.0023.
The value for TTTAAGGGTG was 1.07 ± 0.037.
The value for TTTAATAATG was 0.988 ± 0.036; that for TTTAATAGCA was 1.01 ± 0.025; that for TTTAATCATC was 1.01 ± 0.026.
For TTTAATGCTG, the switch fluorescence ratio stood at 1.01 ± 0.021.
For the sequence TTTAATGGGT, the switch fluorescence ratio was determined as 1 ± 0.022.
Turning to TTTAATTGCG, the switch fluorescence ratio stood at 0.993 ± 0.012.
With TTTACAGATA the figure was 1 ± 0.018.
As to TTTACCGGAT, the switch fluorescence ratio was 1.05 ± 0.024.
Consider TTTACCGGTT, for which the switch fluorescence ratio worked out at 0.974 ± 0.07.
On to TTTACGACAC, for which the switch fluorescence ratio came out at 2.02 ± 0.14.
Regarding TTTACGCGGT, the switch fluorescence ratio was found to be 1.03 ± 0.015.
With TTTACGGATA the figure was 1.349 ± 0.013.
As for TTTACGGATG, the switch fluorescence ratio came to 1.044 ± 0.0036.
With TTTACGGATT, the switch fluorescence ratio was 1.02 ± 0.048.
The value for TTTACGGGGA was 1 ± 0.022; that for TTTACGGTTC was 1.03 ± 0.054; that for TTTACTAAGG was 1.03 ± 0.02.
TTTACTAATA: the switch fluorescence ratio came out at 1.02 ± 0.014.
With TTTACTAGTT, the switch fluorescence ratio was 1.03 ± 0.037.
In the case of TTTACTCGCG, the switch fluorescence ratio is 1 ± 0.038.
TTTACTGGGC: the switch fluorescence ratio was determined as 1.03 ± 0.022.
